Test results: patent publication US20110262396A1, “COMBINATION TREATMENTS COMPRISING PROTEASE BINDING PROTEINS FOR INFLAMMATORY DISORDERS” (DYAX CORP., priority 2008, published 2011)

Tests used:
[1] = tested on: MMP-14 expressed in synovial cells; experiment: Collagen film degradation by human synovial cells (Example 8); format: cell-based; settings: human fibroblasts on bovine type I collagen film, 4 days, data not shown; for collagen film degradation: 37° C.
Method: Human rheumatoid synovial fibroblasts spontaneously express high levels of MMP-14 (Miller et al, 2009 Arthritis Rheum. 2009 March; 60(3):686-97). When they are cultured on collagen film, MMP-14 expressed in synovial cells effectively degrades the collagen film. Human fibroblasts were cultured on bovine type I collagen film at 37° C. for 4 days in the presence or absence of a broad spectrum MMP-inhibitor GM6001, DX-2400 or DX-2410. Cells were then removed from collagen surface by trypsin/EDTA to reveal collagen film. Films were then fixed with 3% PFA for 30 min. and stained with Coomassie blue.

[2] = tested on: collagen-induced arthritis (CIA); experiment: CIA mouse model, DX-2712 as monotherapy or combined with DMARDs or BRMs (Example 7); format: in vivo, mouse (DBA/1); settings: end of study, 31 days of therapy; number in parentheses = dose in mg/kg (Table 12); DX-2712 20 mg/kg IP Q2D
human endothelial cells = experiment: Tube formation of human endothelial cells; format: cell-based; settings: 1-10 nM; plated on Matrigel or collagen type I
gelatinases = experiment: Expression and activation of gelatinases; format: cell-based
LNCaPs (prostate cancer) = experiment: DHT-stimulated invasion of LNCaPs through Matrigel; format: cell-based; settings: DX-1000 1 nM
Method: (§1) Firstly, DX-1000 (1 nM) inhibited both DHT-stimulated invasion of LNCaPs (prostate cancer) and HT-1080 (fibrosarcoma) through Matrigel, processes known to be dependent on the plasminogen/plasmin system.

[3] = Global coagulation screening tests
mouse endothelial cells = experiment: Tube formation of mouse endothelial cells; format: cell-based; settings: 1-10 nM; plated on Matrigel or collagen type I
HT-1080 (fibrosarcoma) = experiment: Invasion of HT-1080 through Matrigel; format: cell-based; settings: DX-1000 1 nM
Method: as §1

[4] = Platelet function screening test
mouse MMP-9 = mouse MMP-9 (Mus musculus, UniProt P41245); experiment: Inhibition of mouse MMP-9; format: biochemical
human MMP-9 = human MMP-9 (Homo sapiens, UniProt P14780); experiment: Inhibition of human MMP-9; format: biochemical
human plasmin = molecular target: T1, human plasmin (human, UniProt P00747 97-810, limits assumed); experiment: inhibition of human plasmin; method not described
T1 construct: In the cell invasion assays the plasmin is that of the cell cultures

[5] = tested on: collagen-induced arthritis (CIA); experiment: DX-2400 and DX-2410 in CIA mouse model (Example 10); format: in vivo, mouse (DBA); settings: 20 mg/kg i.p. 3x/week from day 21 after collagen injection; for development of arthritis as assessed by histological analysis of the joints: FIG. 9(A)
Method: 200 μg of chicken type II collagen was injected subcutaneously with complete Freunds adjuvant in DBA mice (male, 3-4 months old). After 21 days, test compounds were administered i.p. at 20 mg/kg, 3×/week. The first mouse which developed clinical symptom of arthritis was detected 26 days after collagen injection. […] FIG. 9(B) provides a description of the histology scoring system used.

[6] = tested on: collagen-induced arthritis (CIA); experiment: MMP-12 inhibition in mouse collagen-induced arthritis (Example 1); format: in vivo; settings: 20 mg/kg IP Q2D
Description: The study design was as depicted in Table 6 below. [table]

Sequence of mouse MMP-9 (P41245 108-730): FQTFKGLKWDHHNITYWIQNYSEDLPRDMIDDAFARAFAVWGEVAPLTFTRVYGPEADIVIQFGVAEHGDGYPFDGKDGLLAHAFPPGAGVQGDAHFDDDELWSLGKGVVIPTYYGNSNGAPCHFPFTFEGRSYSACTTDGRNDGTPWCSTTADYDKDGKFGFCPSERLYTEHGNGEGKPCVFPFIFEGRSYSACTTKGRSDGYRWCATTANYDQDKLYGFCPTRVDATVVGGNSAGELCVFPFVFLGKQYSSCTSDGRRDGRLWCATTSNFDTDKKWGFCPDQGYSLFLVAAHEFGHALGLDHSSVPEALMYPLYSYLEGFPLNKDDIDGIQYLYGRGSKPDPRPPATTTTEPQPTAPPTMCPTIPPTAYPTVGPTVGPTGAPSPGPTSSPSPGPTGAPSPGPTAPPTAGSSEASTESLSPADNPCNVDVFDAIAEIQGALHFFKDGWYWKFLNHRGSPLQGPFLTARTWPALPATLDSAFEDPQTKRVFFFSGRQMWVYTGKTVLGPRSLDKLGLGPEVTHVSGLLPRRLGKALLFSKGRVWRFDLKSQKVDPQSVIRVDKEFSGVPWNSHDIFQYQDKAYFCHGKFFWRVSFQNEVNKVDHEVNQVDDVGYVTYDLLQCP
Sequence of human MMP-9 (P14780 94-707): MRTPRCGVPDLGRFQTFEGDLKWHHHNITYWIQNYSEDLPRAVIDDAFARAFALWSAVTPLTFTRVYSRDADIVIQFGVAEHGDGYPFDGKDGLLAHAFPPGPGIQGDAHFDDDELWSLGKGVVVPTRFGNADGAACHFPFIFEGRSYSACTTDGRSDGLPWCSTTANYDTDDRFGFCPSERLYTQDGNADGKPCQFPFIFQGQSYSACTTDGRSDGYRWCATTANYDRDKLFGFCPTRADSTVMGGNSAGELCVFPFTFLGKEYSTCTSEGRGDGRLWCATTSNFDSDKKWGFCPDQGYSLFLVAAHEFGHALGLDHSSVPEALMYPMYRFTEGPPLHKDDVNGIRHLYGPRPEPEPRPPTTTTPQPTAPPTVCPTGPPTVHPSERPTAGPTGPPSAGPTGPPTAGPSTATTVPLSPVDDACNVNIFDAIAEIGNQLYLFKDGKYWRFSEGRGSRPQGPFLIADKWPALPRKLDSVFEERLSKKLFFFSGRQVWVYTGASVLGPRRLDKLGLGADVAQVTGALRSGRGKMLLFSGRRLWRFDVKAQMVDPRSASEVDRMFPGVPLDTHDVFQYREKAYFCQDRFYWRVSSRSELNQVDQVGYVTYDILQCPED
T1 sequence (P00747 97-810 limits assumed): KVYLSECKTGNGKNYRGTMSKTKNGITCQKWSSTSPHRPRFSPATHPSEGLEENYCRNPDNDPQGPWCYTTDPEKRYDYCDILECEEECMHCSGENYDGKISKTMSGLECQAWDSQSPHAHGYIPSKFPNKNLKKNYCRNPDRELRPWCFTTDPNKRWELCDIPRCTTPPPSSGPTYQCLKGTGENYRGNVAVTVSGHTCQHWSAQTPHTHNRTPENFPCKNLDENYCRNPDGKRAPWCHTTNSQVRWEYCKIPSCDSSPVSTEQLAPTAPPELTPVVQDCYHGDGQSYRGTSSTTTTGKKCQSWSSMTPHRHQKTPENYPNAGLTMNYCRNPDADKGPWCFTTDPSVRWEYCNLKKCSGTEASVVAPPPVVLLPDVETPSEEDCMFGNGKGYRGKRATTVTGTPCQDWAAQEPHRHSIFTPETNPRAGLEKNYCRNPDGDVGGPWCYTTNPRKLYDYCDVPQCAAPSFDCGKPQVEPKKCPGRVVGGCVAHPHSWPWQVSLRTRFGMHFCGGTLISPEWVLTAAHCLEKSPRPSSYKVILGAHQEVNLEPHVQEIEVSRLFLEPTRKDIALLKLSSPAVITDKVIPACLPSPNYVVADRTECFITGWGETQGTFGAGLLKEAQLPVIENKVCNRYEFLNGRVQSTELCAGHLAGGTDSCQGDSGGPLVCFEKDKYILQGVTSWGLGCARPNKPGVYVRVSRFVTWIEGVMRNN

Molecule: CNC(=O)[C@H](Cc1c[nH]c2ccccc12)NC(=O)[C@@H](CC(=O)NO)CC(C)C [GM6001, reference compound]
- collagen film degradation [1]: completely abolished

Molecule: CN(Cc1cnc2nc(N)nc(N)c2n1)c1ccc(C(=O)N[C@@H](CCC(=O)O)C(=O)O)cc1 [MTX (3), methotrexate]
- % change in AI Score [2]: −80.74%

Molecule: DX-1000: Kunitz domain polypeptide that inhibits human plasmin; SEQ ID NO:100 or SEQ ID NO:200 (EAMHSFCAFKAETGPCRARFDRWFFNIFTRQCEEFIYGGCEGNQNRFESLEECKKMCTRD)
- tube formation of human endothelial cells (human endothelial cells): efficiently blocked
- expression and activation of gelatinases (gelatinases): down-regulated efficiently
- DHT-stimulated invasion of LNCaPs through Matrigel (LNCaPs (prostate cancer)): inhibited
- effects on global coagulation screening tests [3]: no clinically significant effects
- tube formation of mouse endothelial cells (mouse endothelial cells): efficiently blocked
- invasion of HT-1080 through Matrigel (HT-1080 (fibrosarcoma)): inhibited
- effects on a platelet function screening test [4]: no clinically significant effects

Molecule: Etanercept [Enbrel (30)]
- % change in AI Score [2]: −70.37%

B1: 539A-M0240-B03: selective inhibitor of MMP-9; parental isolate (sFab; IgG) (antibody, V domains shown)
VL: QYELTQPRSVSGSPGQSVTISCTGTSSDVGGYNYVSWYQQHPGKAPKLMIYDVSKRPSGVPDRFSGSKSGNTASLTISGLQAEDEADYYCCSYAGSYTLVFGGGTKLTVL
VH: EVQLLESGGGLVQPGGSLRLSCAASGFTFSTYQMVWVRQAPGKGLEWVSVIYPSGGPTVYADSVKGRFTISRDNSKNTLYLQMNSLRAEDTAVYYCARGEDYYDSSGPGAFDIWGQGTMVTVSS
- inhibition of mouse MMP-9 activity (mouse MMP-9): can decrease or inhibit the activity
- inhibition of human MMP-9 activity (human MMP-9): can decrease or inhibit the activity

B2: DX-1000 (designed binder)
chain: EAMHSFCAFKAETGPCRARFDRWFFNIFTRQCEEFIYGGCEGNQNRFESLEECKKMCTRD
- Ki (human plasmin): 0.088 nM

B3: DX-2410: exemplary MMP-14 antibody; VH SEQ ID NO:24, VL SEQ ID NO:25 (antibody, V domains shown)
VH: EVQLLESGGGLVQPGGSLRLSCAASGFTFSVYGMVWVRQAPGKGLEWVSVISSSGGSTWYADSVKGRFTISRDNSKNTLYLQMNSLRAEDTAVYYCARPFSRRYGVFDYWGQGTLVTVSS
VL: DIQMTQSPSSLSASVGDRVTITCRASQGIRNFLAWYQQKPGKVPKLLIYGASALQSGVPSRFSGSGSGTDFTLTISSLQPEDVATYYCQKYNGVPLTFGGGTKVEIK
- redness and swelling of paws [5]: did not significantly improve
- development of arthritis as assessed by histological analysis of the joints [5]: significantly attenuated
- inhibition of collagen film degradation at 500 nM [1]: slightly lower than DX-2400, showing degraded area
- collagen film degradation [1]: inhibited collagen degradation in a dose-dependent manner

B4: DX-2400: exemplary MMP-14 antibody; VH SEQ ID NO:59, VL SEQ ID NO:23 (antibody, V domains shown)
VH: EVQLLESGGGLVQPGGSLRLSCAASGFTFSLYSMNWVRQAPGKGLEWVSSIYSSGGSTLYADSVKGRFTISRDNSKNTLYLQMNSLRAEDTAVYYCARGRAFDIWGQGTMVTVSS
VL: DIQMTQSPSSLSASVGDRVTITCRASQSVGTYLNWYQQKPGKAPKLLIYATSNLRSGVPSRFSGSGSGTDFTLTISSLQPEDFATYYCQQSYSIPRFTFGPGTKVDIK
- redness and swelling of paws [5]: did not significantly improve
- development of arthritis as assessed by histological analysis of the joints [5]: significantly attenuated
- inhibition of collagen film degradation at 500 nM [1]: almost complete inhibition
- collagen film degradation [1]: inhibited collagen degradation in a dose-dependent manner

B5: DX-2712: Dyax inhibitor of MMP-12; specific MMP-12 antibody inhibitor; VL SEQ ID NO:118, VH SEQ ID NO:120 (antibody, V domains shown)
VH: EVQLLESGGGLVQPGGSLRLSCAASGFTFSWYWMHWVRQAPGKGLEWVSGISPSGGMTMYADSVKGRFTISRDNSKNTLYLQMNSLRAEDTAVYYCARDIVGPYSAGLFDYWGRGTLVTVSS
VL: DIQMTQSPSSLSASVGDRVTITCRASQSIYTYLNWYQQKPGKAPKLLIYAASSLQSGVPSRFSGSGSGTDFTLTISSLQPEDFATYYCQQAGIFGQGTKLEIK
- overall inhibition of the arthritic histological indices ([6]; compared to untreated mice, p<0.05, FIG. 3): 29%
- disease development (arthritic score) ([6]; days 36-46, FIG. 2): arrested
- arthritic score ([6]; last day of the study, FIG. 2): sharp increase in arthritic score
- disease development (arthritic score) ([6]; through day 35, FIG. 2): delayed disease development
- % change in AI Score [2]: −34.07%
